# Assay results taken from patent US20150086555A1.
# Where two headings read alike, the source gives them in different places.
# B1: TCN-563 (5237_B21) (antibody, V domains shown)
# VH: QVQLAQSGAEVKRPGSSVKVSCTASGGIFRKNAISWVRQAPGQGLEWMGGIIAVFNTANYAQKFQGRVKITADESGNTAYMELSSLRSDDTAVYYCASHPKYFYGSGSYPDFWGQGTLVTVSS
# VL: QSALTQPRSVSGSPGQSVTISCTGSSSDVGASNSVSWYQQHPGKAPKLVIYDVTERPSGVPHRFSGSKSGNTASLTVSGLQPEDEADYFCCAYGGKYLVVFGGGTKVTVL
# B2: TCN-523 (5248_A17) (antibody, V domains shown)
# VH: QVQLVQSGAEVKKPGSSVKVSCKASGGSFSNYAFSWVRQAPGQGLEWMGGTIPLLGTTNYAQKFQGRVTISADQFTSTAYMELGSLRSEDTAVYYCTRRKMTTAFDSWGQGTLVTVSS
# VL: QPVLTQPPSASASLGASVTLTCTLSSAYSNYKVDWYQQRPGKGPRFVMRVGTGGIVGSKGDGIPDRFSVLGSGLNRYLTIKNIQEEDESDYHCGADHGSGSNFVSPYVFGGGTKLTVL
# B3: TCN-504 (3251_K17) (antibody, V domains shown)
# VH: QVQLQESGPGLVKPSETLSLTCAVSGVSISNIDFYWGWIRQPPGKGLEWIGNIYYTGITFYNPSLSSRVAISIDTSKNQFSLTLTSVTAADTAMYYCARHYGDSEAINDAFDIWGQGTMLTVSS
# VL: EIVMTQSPATLSVSPGERATLSCRASQSVGNSLAWYQQRPGQAPRLLIYGASTRATGIPPRFSGSGSGTEFTLTISSLQTEDFAVYYCQQYINWRPLSFGGGTKVEIK
# Columns and labels:
# Details in all cases: remark: other sources report otherwise
# [1] = target: T1, recombinant soluble homotrimeric HA of A/Anhui/1/05 (H5N1) (Influenza A virus A/Anhui/1/2005(H5N1))
# [2] = target: T2, recombinant soluble homotrimeric HA of A/California/4/09 (H1N1) (Influenza A virus A/California/04/2009(H1N1))
# [3] = target: T3, recombinant soluble homotrimeric HA of A/Egypt/3300-NAMRU3/08 (H5N1) (Influenza A virus A/Egypt/3300-NAMRU3/2008(H5N1))
# [4] = target: recombinant soluble homotrimeric HA of A/Hong Kong/1073/99 (H9N2) (Influenza A virus A/Hong Kong/1073/99 (H9N2))
# [5] = target: recombinant soluble homotrimeric HA of A/Hong Kong/156/97 (H5N1) (Influenza A virus A/Hong Kong/156/97 (H5N1))
# [6] = target: T4, recombinant soluble homotrimeric HA of A/Indonesia/5/05 (H5N1) (Influenza A virus A/Indonesia/5/2005(H5N1))
# [7] = target: T5, recombinant soluble homotrimeric HA of A/Japan/305/57 (H2N2) (Influenza A virus A/Japan/305/1957(H2N2))
# [8] = target: T6, recombinant soluble homotrimeric HA of A/Netherlands/219/03 (H7N7) (Influenza A virus A/Netherlands/219/03(H7N7))
# [9] = target: T7, recombinant soluble homotrimeric HA of A/Solomon Islands/3/06 (H1N1) (Influenza A virus A/Solomon Islands/3/2006(H1N1))
# [10] = target: T8, recombinant soluble homotrimeric HA of A/South Carolina/1/18 (H1N1) (Influenza A virus A/South Carolina/1/18 (H1N1))
# [11] = target: T9, recombinant soluble homotrimeric HA of A/Vietnam/1203/04 (H5N1) (Influenza A virus A/VietNam/1203/2004(H5N1))
# [12] = target: recombinant soluble homotrimeric HA of A/Wisconsin/67/05 (H3N2) (Influenza A virus A/Wisconsin/67/2005(H3N2))
# [13] = target: T10, recombinant soluble homotrimeric HA of A/chicken/Vietnam/NCVD-016/08 (H5N1) (Influenza A virus A/chicken/Vietnam/NCVD-016/2008(H5N1))
# [14] = target: T11, recombinant soluble homotrimeric HA of A/duck/Yangzhou/02/05 (H8N4) (Influenza A virus A/duck/Yangzhou/02/2005(H8N4))
# [15] = target: recombinant soluble homotrimeric HA of A/northern shoveler/California/HKWF115/07 (H6) (Influenza A virus A/northern shoveler/California/HKWF115/2007(H6N1))
# [16] = target: T12, recombinant soluble homotrimeric HA of A/swine/Ontario/01911-2/99 (H4N6) (Influenza A virus A/Swine/Ontario/01911-2/99 (H4N6))
# [17] = target: T1, recombinant soluble homotrimeric HA of …; assay: trimeric HA microarray, transfection supernatant set 1
# [18] = target: T2, recombinant soluble homotrimeric HA of …; assay: as above
# [19] = target: T3, recombinant soluble homotrimeric HA of …; assay: as above
# [20] = target: T4, recombinant soluble homotrimeric HA of …; assay: as above
# [21] = target: T5, recombinant soluble homotrimeric HA of …; assay: as above
# [22] = target: T6, recombinant soluble homotrimeric HA of …; assay: as above
# [23] = target: T7, recombinant soluble homotrimeric HA of …; assay: as above
# [24] = target: T8, recombinant soluble homotrimeric HA of …; assay: as above
# [25] = target: T9, recombinant soluble homotrimeric HA of …; assay: as above
# [26] = target: T10, recombinant soluble homotrimeric HA of …; assay: as above
# [27] = target: recombinant soluble homotrimeric HA of A/Hong Kong/2108/03 (H9N2) (Influenza A virus A/HK/2108/2003(H9N2)); assay: trimeric HA microarray, transfection supernatant set 3
# [28] = target: T11, recombinant soluble homotrimeric HA of …; assay: trimeric HA microarray, transfection supernatant set 1
# [29] = target: T12, recombinant soluble homotrimeric HA of …; assay: as above
Binder,Trimeric HA Binding: RLU [17] [RLU],Trimeric HA Binding: RLU [18] [RLU],Trimeric HA Binding: RLU [19] [RLU],Trimeric HA Binding: RLU [20] [RLU],Trimeric HA Binding: RLU [21] [RLU],Trimeric HA Binding: RLU [22] [RLU],Trimeric HA Binding: RLU [23] [RLU],Trimeric HA Binding: RLU [24] [RLU],Trimeric HA Binding: RLU [25] [RLU],Trimeric HA Binding: RLU [26] [RLU],other results
B1,–,–,–,–,–,–,–,–,–,–,Trimeric HA Binding: RLU [1]: 7520 RLU; Trimeric HA Binding: RLU [2]: 25900 RLU; Trimeric HA Binding: RLU [3]: 21600 RLU; Trimeric HA Binding: RLU [4]: 4600 RLU; Trimeric HA Binding: RLU [5]: 17700 RLU; Trimeric HA Binding: RLU [6]: 23200 RLU; Trimeric HA Binding: RLU [7]: 12400 RLU; Trimeric HA Binding: RLU [8]: 1690 RLU; Trimeric HA Binding: RLU [9]: 21000 RLU; Trimeric HA Binding: RLU [10]: 16300 RLU; Trimeric HA Binding: RLU [11]: 27700 RLU; Trimeric HA Binding: RLU [12]: 314 RLU; Trimeric HA Binding: RLU [13]: 8580 RLU; Trimeric HA Binding: RLU [14]: 327 RLU; Trimeric HA Binding: RLU [15]: 21400 RLU; Trimeric HA Binding: RLU [16]: 376 RLU
B2,60,17700,25500,18500,191,28,6780,26400,80,10800,Trimeric HA Binding: RLU [27]: 51 RLU
B3,29000,18300,16100,16600,15100,23800,29800,21500,1300,27800,Trimeric HA Binding: RLU [28]: 28900 RLU; Trimeric HA Binding: RLU [29]: 26500 RLU
